Measured values as given in patent US20220023399A1, “BLOOD COMPONENT POTENTIATION OF LYTIC PROTEIN ANTI-BACTERIAL ACTIVITY AND METHODS AND USES THEREOF” (priority 2017, published 2022).
“And” between values parts separate entries of the source, which are not always exact repeats. Equal values may be shown once.

Tests used:
[1] = test system: S. aureus (strain not given); assay: MIC analysis of various lysins, chimeric lysins and antibiotics in MHB and human serum; type: cell-based; conditions: Table 14 (Example 2)
Method: To further evaluate the binding domain relevance to the serum component effect, various chimerics were constructed by replacing or swapping out one binding domain for another. Chimeric lysins having the Sal1 CHAP catalytic domain with ClyS binding domain, PlySs2 (CF-301) binding domain, or lysostaphin binding domain were assayed for MIC using MHB versus human serum. the results are depicted below in TABLE 14.

S. aureus strain MW2 [2] = assay: MIC by broth microdilution in human blood matrices and animal sera; type: cell-based; conditions: for PlySs2/CF-301 MIC: different lots
Method: FIG. 5 provides PlySs2 (CF-301) MIC distribution for S. aureus MW2 in different human blood matrices. […] Each sample is described in Supplementary Table 1. The MICs are plotted on the x axis, and the numbers of patient samples with particular MICs are plotted on the y axis.
To understand whether variation in the sources of human blood-derived matrices may impact activity, PlySs2 (CF-301) MICs were determined using an array of 62 different pooled and individual human donor samples of whole blood, serum and plasma from different commercial sources with variations in age, sex, blood type, and type of anticoagulant used. […] Histograms showing MIC frequencies for each of the different matrices indicate that activity in whole blood and serum is equivalent, while activity in plasma differs by ˜1-log 2 dilution (FIG. 5). Overall, the enhancer effect was not impacted by variations in the age, sex, and blood type of individual or pooled donors or by the use of sodium citrate or sodium heparin as anticoagulants (TABLE 3). The effect was also observed in complement-inactivate media, complement preserved media, and was equivalent in at least 3 different matched sets of human blood, serum and plasma fractions, while delipidated serum was not equivalent.
The impact of sample variation on PlySs2 (CF-301) activity in the serum of different animal species was also examined.

[3] = test system: S. aureus (strain not given); assay: MIC assay in supplemented media (recapitulation of blood effect; delipidated serum with fatty acids); type: cell-based
S. aureus NRS 100 (MRSA) = assay: Checkerboard assay, additional MRSA strains; type: cell-based; conditions: paired agent not given
[4] = test system: S. aureus CAIRD 456 (MRSA); assay: Checkerboard assay, additional MRSA strains; type: cell-based; conditions: paired agent not given
S. aureus JMI 227 (MRSA) = assay: Checkerboard assay, additional MRSA strains; type: cell-based; conditions: paired agent not given
[5] = test system: S. aureus JMI 1280 (MRSA); assay: Checkerboard assay, additional MRSA strains; type: cell-based; conditions: paired agent not given
[6] = test system: S. aureus JMI 4789 (MRSA); assay: Checkerboard assay, additional MRSA strains; type: cell-based; conditions: paired agent not given
MRSA strain MW2 = assay: Rabbit infective endocarditis model; type: in vivo, New Zealand White Rabbits; conditions: rabbit; total dose ≥0.09 mg/kg PlySs2 (CF-301) in addition to DAP below the HTD equivalent
S. aureus strain MW2 [7] = assay: Transmission electron microscopy of lytic activity; type: cell-based
Method: FIG. 13 depicts TEM analysis of S. aureus strain MW2 treated with PlySs2 (CF-301) in either human serum (HuS) or MHB for 15 minutes.
Staphylococci were treated with a range of PlySs2 (CF-301) concentrations for […] in either human serum or MHB before analysis by transmission electron microscopy (TEM). […] In addition to the more rapid bacteriolysis in serum, the lytic event was visually different in comparison to the event in MHB. In human serum, all bacteria are encased in a proteinaceous sheath presumably consisting of host proteins including HSA. […] In contrast, the lytic event in MHB appears as the classic cytoplasmic membrane bubbling and extrusion just prior to lysis.
Electron Microscopy. Mid-log phase strain MW2 growing in either CAMHB or human serum (Sigma-Aldrich) was treated with the indicated concentrations of PlySs2 (CF-301) or buffer alone (control) at 37° C. for 15 minutes. The cells were then washed with 1× phosphate buffer (PB) and resuspended in a solution of 4% paraformaldehyde and 2% glutaraldehyde in 0.1 M cacodylate buffer (pH 7.4). The samples were post-fixed in 1% osmium tetroxide, block stained with uranyl acetate, and processed according to standard procedures by The Rockefeller University Electron Microscopy Service. Samples were visualized using a Tecnai™ Spirit BT Transmission Electron Microscope (FEI). […]

[8] = test system: S. aureus (strain not given); assay: MIC analysis of various lysins, chimeric lysins and antibiotics in MHB and human serum; type: cell-based; conditions: Table 2
S. aureus strain MW2 [9] = conditions: CAMHB (Schuch 2014); cited from earlier work
[10] = clinical grade, recombinant from E. coli; cited from earlier work
S. aureus strain MW2 [11] = assay: Lytic assay (loss of optical density) and specific activity
[12] = human whole blood (n=13), serum (n=33) and plasma (n=15) samples
[13] = medium head missing (human serum)

B1: PlySs2 (CF-301): antistaphylococcal lysin from a Streptococcus suis prophage; N-terminal CHAP domain, C-terminal SH3-type binding domain; SEQ ID NO:3 (protein, listed as Streptococcus suis)
chain: MTTVNEALNNVRAQVGSGVSVGNGECYALASWYERMISPDATVGLGAGVGWVSGAIGDTISAKNIGSSYNWQANGWTVSTSGPFKAGQIVTLGATPGNPYGHVVIVEAVDGDRLTILEQNYGGKRYPVRNYYSAASYRQQVVHYITPPGTVAQSAPNLAGSRSYRETGTMTVTVDALNVRRAPNTSGEIVAVYKRGESFDYDTVIIDVNGYVWVSYIGGSGKRNYVATGATKDGKRFGNAWGTFK
With B1 the “Minimal inhibitory concentration, MHB” value ([1]; MHB) was 32 µg/mL, the “Fold decrease in MIC” value ([1]; human serum vs MHB) was 32 and the “Minimal inhibitory concentration, Human serum” value ([1]; human serum) was 1 µg/mL. For the same molecule, the MIC (S. aureus strain MW2 [2]; AST medium) was “^$$MIC AST medium: 0.5 μg/mL”, the “PlySs2/CF-301 MIC” value (S. aureus strain MW2 [2]; dog serum (undiluted)) was 1 µg/mL and 0.5 µg/mL and the MIC (S. aureus strain MW2 [2]; human serum, delipidized, pooled lots) was 64. For the same molecule, the MIC90 (S. aureus strain MW2 [2]; [12]) was 1 µg/mL, the MIC Range (S. aureus strain MW2 [2]; [12]) was 0.5 to 2 µg/mL and the “PlySs2/CF-301 MIC” value (S. aureus strain MW2 [2]; mouse serum (undiluted)) was 32 µg/mL and 64 µg/mL. For the same molecule, the “PlySs2/CF-301 MIC” value (S. aureus strain MW2 [2]; rabbit serum (undiluted)) was 1 µg/mL, the “PlySs2/CF-301 MIC” value (S. aureus strain MW2 [2]; rat serum (undiluted)) was 8 µg/mL and the “Fold decrease in MIC” value ([3]; 50% MHB/50% human serum (heat inactivated) + HSA, 40 mg/mL) was 4. For the same molecule, the “Fold decrease in MIC” value ([3]; 50% MHB/50% human serum (heat inactivated) + HuLYZ, 10 μg/mL) was 2, the “Fold decrease in MIC” value ([3]; 50% MHB/50% human serum (heat inactivated) + HuLYZ, 10 μg/mL + HSA 40 mg/mL) was 16 and the “Fold decrease in MIC” value ([3]; 50% MHB/50% human serum (heat inactivated) + MouseSA, 40 mg/mL) was 1. For the same molecule, the “Fold decrease in MIC” value ([3]; 50% MHB/50% human serum (heat inactivated) + RabSA, 40 mg/mL) was 4, the “Fold decrease in MIC” value ([3]; 50% MHB/50% human serum (heat inactivated) + RatSA, 40 mg/mL) was 2 and the “Fold decrease in MIC” value ([3]; MHB supplemented with HSA, 40 mg/mL) was 8. The “Fold decrease in MIC” value ([3]; MHB supplemented with HuLYZ, 10 μg/mL) was 2, the “Fold decrease in MIC” value ([3]; MHB supplemented with HuLYZ, 10 μg/mL + HSA 40 mg/mL) was 16 and the “Fold decrease in MIC” value ([3]; MHB supplemented with RabSA, 40 mg/mL) was 8. For the same molecule, the “Fold decrease in CF-301 MIC compared to media alone” value (shortened to “Fold decrease in CF-301 MIC”) ([3]; delipidated human serum + Oleate (0.625 mg/mL)) was 8, the “Fold decrease in CF-301 MIC” value ([3]; delipidated human serum + Palmitate (0.625 mg/mL)) was 16 and the “Fold decrease in CF-301 MIC” value ([3]; delipidated human serum + Palmitate + Oleate) was 16. It also gave a ΣFICavg (S. aureus NRS 100 (MRSA); CAMHB) of 0.75, a ΣFICmin (S. aureus NRS 100 (MRSA); CAMHB) of 0.5 and a ΣFICavg (S. aureus NRS 100 (MRSA); [13]) of 0.29. For the same molecule, the ΣFICmin (S. aureus NRS 100 (MRSA); [13]) was 0.25, the ΣFICavg ([4]; CAMHB) was 0.75 and the ΣFICmin ([4]; CAMHB) was 0.5. For the same molecule, the ΣFICavg [4, 13] was 0.44, the ΣFICmin [4, 13] was 0.38 and the ΣFICavg (S. aureus JMI 227 (MRSA); CAMHB) was 0.64. The ΣFICmin (S. aureus JMI 227 (MRSA); CAMHB) was 0.5, the ΣFICavg (S. aureus JMI 227 (MRSA); [13]) was 0.29 and the ΣFICmin (S. aureus JMI 227 (MRSA); [13]) was 0.25. The ΣFICavg ([5]; CAMHB) was 0.57, the ΣFICmin ([5]; CAMHB) was 0.5 and the ΣFICavg [5, 13] was 0.29. For the same molecule, the ΣFICmin [5, 13] was 0.25, the ΣFICavg ([6]; CAMHB) was 0.64 and the ΣFICmin ([6]; CAMHB) was 0.5. For the same molecule, the ΣFICavg [6, 13] was 0.29, the ΣFICmin [6, 13] was 0.25 and the “decrease in bacterial densities as compared to DAP treatment alone” value (MRSA strain MW2) was 3 log 10. The “concentration at which bacteriolytic activity was observed by TEM (only the highest tested)” value (S. aureus strain MW2 [7]; MHB) was 5 µg/mL, the “bacteriolysis observed by TEM” value (S. aureus strain MW2 [7]; human serum, all concentrations over a 100-fold range) was “widespread evidence of lysis” and the “Minimal inhibitory concentration, MHB” value ([8]; MHB) was 32 µg/mL. For the same molecule, the “Fold decrease in MIC” value ([8]; human serum vs MHB) was 32, the “Minimal inhibitory concentration, Human serum” value ([8]; human serum) was 1 µg/mL and the “minimum concentration required for synergy with daptomycin” value (S. aureus strain MW2 [9]) was 4 µg/mL. The “pH range over which active” value [10] was 6-9.7 pH, the “temperature range over which active” value [10] was 16-55 °C and the “Fold increase in specific activity” value (S. aureus strain MW2 [11]; supplement HuLYZ, 10 μg/mL) was 9.8. For the same molecule, the “Fold increase in specific activity” value (S. aureus strain MW2 [11]; supplement rHSA, 4%) was 17.8 and the “Fold increase in specific activity” value (S. aureus strain MW2 [11]; supplements rHSA, HuLYZ) was 25.
